Measured values from article PMC10393192, “Structure and DNA-bridging activity of the essential Rec114–Mei4 trimer interface”.

What was measured:
Experiment in all cases: EMSA
[1] = molecular target: T1, Rec114C (Saccharomyces cerevisiae) (UniProt P32841); settings: C50, single experiment; main text ~300-400 nM; concentration as dimer; EMSA: 25 mM Tris-HCl pH 7.4, 100 mM NaCl, 5 ng DNA, 20 min, room temperature; AFM: 25 mM HEPES-NaOH pH 7.4, 5 mM MgCl2, 50 mM NaCl, 10% glycerol, 30 min, RT …
T1 sequence: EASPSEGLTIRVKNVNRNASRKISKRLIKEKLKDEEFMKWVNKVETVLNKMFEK

Rec114C;Mei4N = molecular target: T2, Rec114C;Mei4N (Saccharomyces cerevisiae;Saccharomyces …, UniProt P32841;P29467 375-428;1-43, |); settings: EMSA: 25 mM Tris-HCl pH 7.4, 100 mM NaCl, 5 ng DNA, 20 min, room temperature, AFM: 25 mM HEPES-NaOH pH 7.4, 5 mM MgCl2, 50 mM NaCl, 10% glycerol, 30 min, RT …
T2 sequence 1: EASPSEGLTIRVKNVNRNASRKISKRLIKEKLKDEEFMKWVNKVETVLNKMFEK
T2 sequence 2: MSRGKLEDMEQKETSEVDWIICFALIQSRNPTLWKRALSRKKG

[2] = molecular target: Rec114(388-428);Mei4N (Saccharomyces cerevisiae;Saccharomyces cerevisiae) (UniProt P29467); settings: EMSA: 25 mM Tris-HCl pH 7.4, 100 mM NaCl, 5 ng DNA, 20 min, room temperature; AFM: 25 mM HEPES-NaOH pH 7.4, 5 mM MgCl2, 50 mM NaCl, 10% glycerol, 30 min, RT …
[3] = molecular target: Rec114(388-428) K399A/R400A;Mei4N (Saccharomyces cerevisiae;Saccharomyces cerevisiae) (UniProt P29467); settings: EMSA: 25 mM Tris-HCl pH 7.4, 100 mM NaCl, 5 ng DNA, 20 min, room temperature; AFM: 25 mM HEPES-NaOH pH 7.4, 5 mM MgCl2, 50 mM NaCl, 10% glycerol, 30 min, RT …
[4] = molecular target: Rec114(386-428);Mei4N (Saccharomyces cerevisiae;Saccharomyces cerevisiae) (UniProt P29467); settings: EMSA: 25 mM Tris-HCl pH 7.4, 100 mM NaCl, 5 ng DNA, 20 min, room temperature; AFM: 25 mM HEPES-NaOH pH 7.4, 5 mM MgCl2, 50 mM NaCl, 10% glycerol, 30 min, RT …
[5] = system: Rec114(325-428);Mei4(1-90) (Saccharomyces cerevisiae;Saccharomyces cerevisiae); settings: EMSA: 25 mM Tris-HCl pH 7.4, 100 mM NaCl, 5 ng DNA, 20 min, room temperature; AFM: 25 mM HEPES-NaOH pH 7.4, 5 mM MgCl2, 50 mM NaCl, 10% glycerol, 30 min, RT …
[6] = molecular target: Rec114(388-428) K417A/K424A;Mei4N (Saccharomyces cerevisiae;Saccharomyces cerevisiae) (UniProt P29467); settings: EMSA: 25 mM Tris-HCl pH 7.4, 100 mM NaCl, 5 ng DNA, 20 min, room temperature; AFM: 25 mM HEPES-NaOH pH 7.4, 5 mM MgCl2, 50 mM NaCl, 10% glycerol, 30 min, RT …
[7] = system: Rec114(388-428);Mei4(13-43) (Saccharomyces cerevisiae;Saccharomyces cerevisiae); settings: EMSA: 25 mM Tris-HCl pH 7.4, 100 mM NaCl, 5 ng DNA, 20 min, room temperature; AFM: 25 mM HEPES-NaOH pH 7.4, 5 mM MgCl2, 50 mM NaCl, 10% glycerol, 30 min, RT …
[8] = molecular target: Rec114(388-428) K403A/K407A;Mei4N (Saccharomyces cerevisiae;Saccharomyces cerevisiae) (UniProt P29467); settings: EMSA: 25 mM Tris-HCl pH 7.4, 100 mM NaCl, 5 ng DNA, 20 min, room temperature; AFM: 25 mM HEPES-NaOH pH 7.4, 5 mM MgCl2, 50 mM NaCl, 10% glycerol, 30 min, RT …
[9] = molecular target: Rec114(388-428) R395A/K396A;Mei4N (Saccharomyces cerevisiae;Saccharomyces cerevisiae) (UniProt P29467); settings: EMSA: 25 mM Tris-HCl pH 7.4, 100 mM NaCl, 5 ng DNA, 20 min, room temperature; AFM: 25 mM HEPES-NaOH pH 7.4, 5 mM MgCl2, 50 mM NaCl, 10% glycerol, 30 min, RT …
[10] = molecular target: Rec114C;Mei4N-ybbR (Saccharomyces cerevisiae;Saccharomyces cerevisiae) (UniProt P32841); settings: C50, unlabeled; EMSA: 25 mM Tris-HCl pH 7.4, 100 mM NaCl, 5 ng DNA, 20 min, room temperature; AFM: 25 mM HEPES-NaOH pH 7.4, 5 mM MgCl2, 50 mM NaCl, 10% glycerol, 30 min, RT …
[11] = molecular target: Rec114C;Mei4N-ybbR-LD650 (Saccharomyces cerevisiae;Saccharomyces cerevisiae) (UniProt P32841); settings: C50, single experiment; EMSA: 25 mM Tris-HCl pH 7.4, 100 mM NaCl, 5 ng DNA, 20 min, room temperature; AFM: 25 mM HEPES-NaOH pH 7.4, 5 mM MgCl2, 50 mM NaCl, 10% glycerol, 30 min, RT …

| Substance | K half [1] | K half (Rec114C;Mei4N; C50) | K half [2] | K half [3] | K half [4] | K half [5] | K half [6] | K half (Rec114C;Mei4N) | K half [7] | K half [8] | K half [9] | K half [10] | K half [11] |
| --- | --- | --- | --- | --- | --- | --- | --- | --- | --- | --- | --- | --- | --- |
| 1000-bp DNA | 300 nM | 80 nM |  |  |  |  |  |  |  |  |  |  |  |
| 150-bp DNA |  |  | 110 nM | 2000 nM | 110 nM | 90 nM | 900 nM | 90 nM | 100 nM | 1000 nM | 1000 nM | 90 nM | 90 nM |
